Experiment: yeast display, Sf9 membrane polyspecificity reagent, FACS + sequencing; frameworks hold sequencing errors
Outline: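 Nanobodies from a synthetic yeast display library (Saccharomyces cerevisiae BJ5465), induced 36–48 hours with galactose, were stained 1 hour at 4 °C with 10% biotinylated, detergent-solubilized Sf9 membrane reagent, enriched on streptavidin microbeads, then FACS-sorted. Anti-HA (expression) and streptavidin (reagent binding) fluorescence set low and high (top ~1%) gates. Polyreactivity labels come from the gate of origin. Genes were colony-PCR amplified, MiSeq 2 × 250 sequenced and filtered by CDR length.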

Row | Sequence | polyreactivity (PSR sort gate)
1 | QVQLVESGGGLVQAGGSLRLSCAASGSIFAYYAMGWSRQAPGKERELVASIDWSGDLYVRDSVKGRFTISRDNAKNTVYLQMNSLKPEDTAVYYCAADVGFGVVFYDYWGQGTQVTVSS | low polyreactivity
2 | QVQLVESGGGLVQAGGSLRLSCAASGSIFAYYAMGWYRQAPGKERELVADITSSGGITYYADSVKGRFTISRDNAKNTVYLQMNSLKPEDTAVYYCNADSWAIGGGSYPYDYWGQGTQVTVSS | low polyreactivity
3 | QVQLVESGGGLVQAGGSLRLSCAASGSIFCSYAMAWYRQAPGKERELVASITRSGGSTYYADSVKGRFTISRDNAKNTVYLQMNSLKPEDTAVYYCNARRTTRWGSSKYEYDYWGQGTQVTVSS | high polyreactivity
4 | QVQLVESGGGLVQAGGSLRLSCAASGSIFCSYAMGWYRQAPGKERELVAAITWSGGNTYADSVKGRFTISRDNAKNTDYLQMNSLKPEDTAVYYCAADPAHGTKWYVYPSHDDYWGQGTQGTVSS | low polyreactivity
5 | QVQLVESGGGLVQAGGSLRLSCAASGSIFDAYAMGWYRQATGKERELVAAITYSGGSTYYADSVKGRFTISRDNAKNTVYLQMNSLKPEDTAVYYCNTDSRVRTWFRAFTYDSWGQGTQVTVSS | low polyreactivity
6 | QVQLVESGGGLVQAGGSLRLSCAASGSIFDDYAMGWYRQAPGKEREFVATITTSGGNTYYADSVKGRFTISRDNAKNTVYLQMHSLKPEDTAVYYCAKDRVKSPYLVYDSWGQGTQVTVSS | low polyreactivity
7 | QVQLVESGGGLVQAGGSLRLSCAASGSIFDDYAMGWYRQAPGKERELVAAITSGGSTYYADSVKGRFTISRDNAKNTVYLQMTSLKPEDTAVYYRATRYHWSSTFAPVGAGRGGDSWGQGTQVTVSS | low polyreactivity
8 | QVQLVESGGGLVQAGGSLRLSCAASGSIFDDYTMVWYRQAPGKEREFVATITSSGSTYYADSVKGRFTISRDNAKNTVYLQMNSLKPEDTAVYYCNADDTYYPLGGITGYDYWGQGTQVTVSS | low polyreactivity
9 | QVQLVESGGGLVQAGGSLRLSCAASGSIFDEYAMGWYRQAPGKERELVAAITRTGGRTYYADSVKGRFTISRDNAKNTVYLQMNSLKPEDTAVYYSAKGTNYRDDYWGQGTQVTVSS | low polyreactivity
10 | QVQLVESGGGLVQAGGSLRLSCAASGSIFDEYAMGWYRQAPGKERELVAAITYSGGDTYYADSVKGRFTISRDNAKNTVYLQMNSLKPEDTAVYYCAVDTPLEYYHQQAYVAGEYWGQGTQVTVSS | low polyreactivity
11 | QVQLVESGGGLVQAGGSLRLSCAASGSIFDFSAMGWYRQAPGKERELVAAISGSGGSTYYADSVKGRFTISRDNAKNTVYLQMNSLKPEDTAVYYCSYYYWGQGTQVTVSS | low polyreactivity
12 | QVQLVESGGGLVQAGGSLRLSCAASGSIFDGNAMGWYREAPGKERELVAAISRRAGSTYYADSVKGRFTISRDNAKNTVYLQMNSLNPEDTAVYYCAASLYVPRFSRLGYDYWGQGTHVTVSS | high polyreactivity
13 | QVQLVESGGGLVQAGGSLRLSCAASGSIFDGYGMGWYRQAAGKERELVAGITSGGSTYYADSVKGRFTFSRDNAKNTVYLQMNSLIPEDTAVYYCATVVRYSNARGDYWGQGTQVTVSS | low polyreactivity
14 | QVQLVESGGGLVQAGGSLRLSCAASGSIFDHYARGWYRQAPGKDRELVAAISRSAGSTYYADSVKGRFTISRDHAKNTVYLQMNSLKPEDTAVYYCAADGKYYHRRPGWPIYDYWGQGTQVTVSS | high polyreactivity
15 | QVQLVESGGGLVQAGGSLRLSCAASGSIFDINAMGWYRQAPGKERELVADISWSGGRTYYADSVKGRFTISRDNAKNTVYLQMNSLKPEDTAVYYCNAQDSRFWYAEYDYWGQGNQVTVSS | low polyreactivity
16 | QVQLVESGGGLVQAGGSLRLSCAASGSIFDIYAMAWYRQAPGKERELVARIRGSGGRTYYADSVKGRFTISRDNAKNTVYLQMNSLKPEDTAVYYCNAGVRAVNRKYDYWGQGTQVTVSS | high polyreactivity
17 | QVQLVESGGGLVQAGGSLRLSCAASGSIFDIYAMGWYREAPGKERELVAAISGRGGSTYADSVKGRFTISRDNAKNTVYLQMNSLKPEDTAVYYCATERHRFGGLYYWGQGTQVTVSS | low polyreactivity
18 | QVQLVESGGGLVQAGGSLRLSCAASGSIFDIYAMGWYRQAPGKERELVAAISWIGDSTSYAESVKGRFTISRDNAKNTVYLQMNSLKPEDTAVYYCNAVVQGLADFQKYDYWGQGTQVTVSS | low polyreactivity
19 | QVQLVESGGGLVQAGGSLRLSCAASGSIFDIYGMGWYRQAPGKERELVASISGGAGSTNYADSVKGRFTISRDNAKNTVYLQMNSLNPEDTAVYYCAAEVYVPDYFQHKFDVEYEYWGQGTQVTVSS | low polyreactivity
20 | QVQLVESGGGLVQAGGSLRLSCAASGSIFDLNAMGWYRQAPGKERELVAAISKSGGSTYYADSVKGRFTISRDNAKNTVYLQMNSLKPEDTAVYYCAARYHYPGNWYNYWGQGTQVTVSS | low polyreactivity

Row | Sequence | polyreactivity (PSR sort gate)
21 | QVQLVESGGGLVQAGGSLRLSCAASGSIFDLYAMGWYRQAPGKERELVADISIADSTNYADSVKGRFTISRDNAKNTVYLQMNSLKPEDTGVYYCNADVWWYSYEYDYWGQGTQVTVSS | low polyreactivity
22 | QVQLVESGGGLVQAGGSLRLSCAASGSIFDLYAMGWYRQAPGTERELVADISIADSTNYADSVKGRFTISRDNAKNTVYLQMNSLKPEDTAVYYCNADVWWYSYEYDYWGQGTQVTVSS | low polyreactivity
23 | QVQLVESGGGLVQAGGSLRLSCAASGSIFDNAMGWYRQAPGKERELVAAISLSGSRTYYADSVKGRFTISRDNAKNTDYLQMNSLKPEDTAVYYCNTELVYYSTYDYWGQGTQVTVSS | low polyreactivity
24 | QVQLVESGGGLVQAGGSLRLSCAASGSIFDNNAMGWYRQAPGKERELVAAISRSGGSTYYADSVKGRFTISRDNAKNTVYLQMNSLKPDDTAVYYCAALPSRPRGYDYWGQGTQVTVSS | high polyreactivity
25 | QVQLVESGGGLVQAGGSLRLSCAASGSIFDNYAMGWYRQAPGKERELVAAITSSGNTSYADSVKGRFTISRDNAKNTVYLQMNSLKPEDTAVYYCNADSQVKYTYNNHFDYWGQGTQVTVSS | low polyreactivity
26 | QVQLVESGGGLVQAGGSLRLSCAASGSIFDPNAMGWYRQAPGKERELVAAISTSTGNTYYADSVKGRCTISRDNAKNTVYLQMNSLKPEDTAVYYCAAKGTPSYGSYHYDMDYWGQGTQVTVSS | low polyreactivity
27 | QVQLVESGGGLVQAGGSLRLSCAASGSIFDPNAMGWYRQAPGKERELVAAITSGGGSTYYADSVKGRFTISRDNAKNTVYLEMNSLKPEDTAVYYCNKVFVLPYKFVAWFDYWGQGTQVTVSS | low polyreactivity
28 | QVQLVESGGGLVQAGGSLRLSCAASGSIFDPYAMGWYIQAPGKERELVAVINDGGRTTYADSVKGRFTISRDNAKNTVYLQMNSLKPEDTAVYYCAADVGYFKSDYWGQGTQVTVSS | low polyreactivity
29 | QVQLVESGGGLVQAGGSLRLSCAASGSIFDPYAMGWYRQAPGKERELVAAISFRGGGTYYADSVKGRFTISRDNAKNTVYLQMNSLKPEDTAVYYCNVDYYWISGYVGSYIEFDYWGQGTQVTVSS | low polyreactivity
30 | QVQLVESGGGLVQAGGSLRLSCAASGSIFDPYAMGWYRQAPGKERELVAAISWSDSSTYYADSVKGRFTISRDNEKNTVYLQMNSLKPEDTAVYYSAAPSRYRYYWGNYWGQGTQVTVSS | high polyreactivity
31 | QVQLVESGGGLVQAGGSLRLSCAASGSIFDPYAMGWYRQAPGKERELVAAITASGSSTYYADSVKGRFTISRDNAKNTVYLQMNSLKPEDTAVYYCAADRANWEYLLSWLGYDYWGQGTQVTVSS | low polyreactivity
32 | QVQLVESGGGLVQAGGSLRLSCAASGSIFDQYTMGWSRQAPGKERELVAAIRFSGGSTSYADSVKGRFTISRDNAKNTVYLQMNSLIPEDTAVYYCNVDAITWWDWEDFDYWGQGTQVTVSS | low polyreactivity
33 | QVQLVESGGGLVQAGGSLRLSCAASGSIFDRNAMGRYRQAPGKERELVAAITSGGSTYYADSVKGRFTISRDNAKNTVYFQMNSLKPEDTAVYYCNADTDPPVPLYYWGQGTQVNVSS | low polyreactivity
34 | QVQLVESGGGLVQAGGSLRLSCAASGSIFDRNAMGWYRQAPGKERELVAAISFSGGSTYYADSVKGRFTISRDNAKNTVYLQMNSLKPEDTAVYYCAKAGRYANLPYVYWGQGTQVTVSS | high polyreactivity
35 | QVQLVESGGGLVQAGGSLRLSCAASGSIFDRNAMGWYRQAPGKERELVSAISRGGRTYYADSVKGRFTISRDNAKNTVYLQMNSLKPEDTAVYDCAAGYPSAWAYTTDDYWGQGTQVTVSS | low polyreactivity
36 | QVQLVESGGGLVQAGGSLRLSCAASGSIFDRYAMGWYRQAPGKESELVAAITCGTSTYYADSVKGRFTISRDNAKNTVYLKMNSLKPEDTAVYYCNKGYSSSMDYWGQGTQVTVSS | low polyreactivity
37 | QVQLVESGGGLVQAGGSLRLSCAASGSIFDSKAMGWFRQGPGKERELVAAINRSDASTYYADSVKGRFTISRDNAKNTVYLQMNSLKPEDTAVYYCAVEVYVYNVDIYDYWGQGTQVTVSS | low polyreactivity
38 | QVQLVESGGGLVQAGGSLRLSCAASGSIFDSNTMGWYRQAPGKERELVAAITGTGTSTYYADSVKGRFTISRDNAKNTVYLQMNSLKPEDTAVYYCAADLEYKTWWYDYWGQGTQVTVSS | low polyreactivity
39 | QVQLVESGGGLVQAGGSLRLSCAASGSIFDSYAMGWYRQAPGKERELVAGIDSTGDTSYADSVKGRFTISRDNAKNTVYLQMNSLKPEDTAVYYCAKEYPGDSVQASDEPWGMGYWGQGTQVTVSS | low polyreactivity
40 | QVQLVESGGGLVQAGGSLRLSCAASGSIFDSYAMGWYRQAPGKERELVATINTSGGSTYYADSVKGRFTIHDNAKNTVYLQKNSLKPEDTAVYYCNAGRWVYWQNNFGDYGYWGQGTQVTVSS | low polyreactivity

Reference: the nanobody polyreactivity screen of Harvey et al. (2022)
